# Laboratory results from patent publication US6958223 (UNITED STATES SURGICAL, dated 2005).
# B1: D4, 219 amino acid C-terminal fragment of human collagen Type I (α1), hydroxyproline-containing (other)
# chain: MGPPGLAGPPGESGREGAPGAEGSPGRDGSPGAKGDRGETGPAGPPGAPGAPGAPGPVGPAGKSGDRGETGPAGPAGPVGPAGARGPAGPQGPRGDKGETGEQGDRGIKGHRGFSGLQGPPGPPGSPGEQGPSGASGPAGPRGPPGSAGAPGKDGLNGLPGPIGPPGPRGRTGDAGPVGPPGPPGPPGPPGPPSAGFDFSFLPQPPQEKAHDGGRYYRA
# modifications: trans-4-hydroxyproline in place of proline at all proline positions (100% substitution by mass spectrometry and amino acid analysis)
# notes: also called D4-α1; protein D4
# Target: the molecule itself
# Assay: circular dichroism of purified D4 in 0.1M sodium phosphate pH 7.0 after two days at 4° C.; self-association into homotrimeric helices
# Description: The solution was incubated at 4° C. for two days to allow triple helices to form prior to analysis. Spectra were obtained on an Aviv model 62DS spectropolarimeter (Yale University, Molecular Biophysics and Biochemistry Department). A 1 mm path length quartz suprasil fluorimeter cell was used. Following a 10 min. incubation period at 4° C., standard wavelength spectra were recorded from 260 to 190 nm using 10 sec acquisition times and 0.5 nm scan steps. This spectrum is characterized by a negative ellipticity at 198 nm and a positive ellipticity at 221 nm. The magnitudes of both of these absorbances was greater in neutral pH buffer compared to acidic conditions. […] See, e.g., Venugopal et al., Biochemistry, 33, 7948 (1994). Heating at 85° C. for five minutes prior to obtaining the CD spectrum decreased the magnitude of the absorbance at 198 nm and abolished the absorbance at 221 nm (FIG. 33). This behavior is also typical of the triple helical structure of collagen. See, R. S. Bhatnagar et al., Circular Dichroism and the Conformational Analysis of Biomolecules G. D. Fasman, Ed., supra. A thermal melt profile of D4 conducted as above in phosphate buffer gave a melting temperature of about 29° C. […] (See, A. Rossi, et al., Biochemistry 35, 6048 (1996)).
protein,measurement,value
B1,binding result,binds
